From the RNAGym collection of RNA variant scans (doi:10.7554/elife.80360) come the findings set out here.

First the molecules themselves.
B1: HDV Ribozyme (parent)
chain: GGCCGGCAUGGUCCCAGCCUCCUCGCUGGCGCCGGCUGGGCAACAUUCCGAGGGGACCGUCCCCUCGGUAAUGGCGAAUGGGACCCA

This data set covers variants of B1. The data set can be described thus: self-cleavage, relative activity (ratio to wild type); higher = more cleavage; co-transcriptional.
Turning to GGCCGGCAUGGUCCCAGCCUCCUCGCUGGCGCCGGCUGGGCAACAUUCCGAGGGCACCGUCCCCUCGGUAAUGGCGACUGGGACCCA [G55C A78C], the self-cleavage is 0.111.
In the case of GGCCGGCAUGGUCCCAGCCUCCUCGCUGGCGCCGGCUGGGCAACAUUCCGAGGGCACCGUCCCCUCGGUAAUGGCGAGUGGGACCCA [G55C A78G] it was 0.525; in that of GGCCGGCAUGGUCCCAGCCUCCUCGCUGGCGCCGGCUGGGCAACAUUCCGAGGGCACCGUCCCCUCGGUAAUGGCGAUUGGGACCCA [G55C A78U], 0.324.
In the case of GGCCGGCAUGGUCCCAGCCUCCUCGCUGGCGCCGGCUGGGCAACAUUCCGAGGGCACCGUCCCCUCGGUAAUGGCCAAUGGGACCCA [G55C G76C] it was 0.943; in that of GGCCGGCAUGGUCCCAGCCUCCUCGCUGGCGCCGGCUGGGCAACAUUCCGAGGGCACCGUCCUCUCGGUAAUGGCGAAUGGGACCCA [G55C C63U], 0.808; in that of GGCCGGCAUGGUCCCAGCCUCCUCGCUGGCGCCGGCUGGGCAACAUUCCGAGGGCACCGUCCCCUCGGUAAUGGCGAAUGGGACGCA [G55C C85G], 1.15.
As for GGCCGGCAUGGUCCCAGCCUCCUCGCUGGCGCCGGCUGGGCAACAUUCCGAGGGCACCGUCCCCUAGGUAAUGGCGAAUGGGACCCA [G55C C66A], the self-cleavage was determined as 0.87.
On to GGCCGGCAUGGUCCCAGCCUCCUCGCUGGCGCCGGCUGGGCAACAUUCCGAGGGCACCGUCACCUCGGUAAUGGCGAAUGGGACCCA [G55C C62A], for which the self-cleavage was 1.04.
In the case of GGCCGGCAUGGUCCCAGCCUCCUCGCUGGCGCCGGCUGGGCAACAUUCCGAGGGCACCGUCCCGUCGGUAAUGGCGAAUGGGACCCA [G55C C64G], the self-cleavage came out at 0.953.
In the case of GGCCGGCAUGGUCCCAGCCUCCUCGCUGGCGCCGGCUGGGCAACAUUCCGAGGGCACCGUCCCUUCGGUAAUGGCGAAUGGGACCCA [G55C C64U] it was 1.12.
The result for GGCCGGCAUGGUCCCAGCCUCCUCGCUGGCGCCGGCUGGGCAACAUUCCGAGGGCACCGUCCCCUCGGUAAUAGCGAAUGGGACCCA [G55C G73A] reads 0.751.
As for GGCCGGCAUGGUCCCAGCCUCCUCGCUGGCGCCGGCUGGGCAACAUUCCGAGGGCACCGUCCCCUCGGUAUUGGCGAAUGGGACCCA [G55C A71U], the self-cleavage worked out at 0.872.
As to GGCCGGCAUGGUCCCAGCCUCCUCGCUGGCGCCGGCUGGGCAACAUUCCGAGGGCACCGUCCCCUCGGUACUGGCGAAUGGGACCCA [G55C A71C], the self-cleavage was 0.903.
The result for GGCCGGCAUGGUCCCAGCCUCCUCGCUGGCGCCGGCUGGGCAACAUUCCGAGGGCACCGUCCCCUCUGUAAUGGCGAAUGGGACCCA [G55C G67U] reads 0.967; that for GGCCGGCAUGGUCCCAGCCUCCUCGCUGGCGCCGGCUGGGCAACAUUCCGAGGGCACCGUCCCCUCCGUAAUGGCGAAUGGGACCCA [G55C G67C], 1.06.
In the case of GGCCGGCAUGGUCCCAGCCUCCUCGCUGGCGCCGGCUGGGCAACAUUCCGAGGGCACCGUCCCCUCGGUAAUGGGGAAUGGGACCCA [G55C C75G] it was 0.208; in that of GGCCGGCAUGGUCCCAGCCUCCUCGCUGGCGCCGGCUGGGCAACAUUCCGAGGGCACCGUCCCCUCGGUAAUGGCGAAUGGGAGCCA [G55C C84G], 0.712.
With GGCCGGCAUGGUCCCAGCCUCCUCGCUGGCGCCGGCUGGGCAACAUUCCGAGGGCACCGUCCCCUCGGUAAUGGCGAAUGGGAUCCA [G55C C84U], the self-cleavage came to 0.817.
As to GGCCGGCAUGGUCCCAGCCUCCUCGCUGGCGCCGGCUGGGCAACAUUCCGAGGGCACCGUCCCCUCGGUAAUGCCGAAUGGGACCCA [G55C G74C], the self-cleavage was 0.297.
Turning to GGCCGGCAUGGUCCCAGCCUCCUCGCUGGCGCCGGCUGGGCAACAUUCCGAGGGCACCGUCCCCUCGGUAAUGACGAAUGGGACCCA [G55C G74A], the self-cleavage was 0.538.
In the case of GGCCGGCAUGGUCCCAGCCUCCUCGCUGGCGCCGGCUGGGCAACAUUCCGAGGGCACCGUCCCCUCGGUAAUGUCGAAUGGGACCCA [G55C G74U], the self-cleavage is 0.652.
For GGCCGGCAUGGUCCCAGCCUCCUCGCUGGCGCCGGCUGGGCAACAUUCCGAGGGCACCGUCCCCUCGGUAAUGGCGAAUGGGACCAA [G55C C86A], the self-cleavage is 1.03.
In the case of GGCCGGCAUGGUCCCAGCCUCCUCGCUGGCGCCGGCUGGGCAACAUUCCGAGGGCACCUUCCCCUCGGUAAUGGCGAAUGGGACCCA [G55C G59U] it was 0.87; in that of GGCCGGCAUGGUCCCAGCCUCCUCGCUGGCGCCGGCUGGGCAACAUUCCGAGGGCACCAUCCCCUCGGUAAUGGCGAAUGGGACCCA [G55C G59A], 1.06; in that of GGCCGGCAUGGUCCCAGCCUCCUCGCUGGCGCCGGCUGGGCAACAUUCCGAGGGCACCGUCCCCUCGGUAAUGGCGUAUGGGACCCA [G55C A77U], 0.65.
Regarding GGCCGGCAUGGUCCCAGCCUCCUCGCUGGCGCCGGCUGGGCAACAUUCCGAGGGCACCGUCCCCUCGGUAAUGGCGAAUGGGACCCU [G55C A87U], the self-cleavage was 1.02.
In the case of GGCCGGCAUGGUCCCAGCCUCCUCGCUGGCGCCGGCUGGGCAACAUUCCGAGGGCACCGUCCCCUCGGUAAUGGCGAAUGGGACCCC [G55C A87C] it was 1.11; in that of GGCCGGCAUGGUCCCAGCCUCCUCGCUGGCGCCGGCUGGGCAACAUUCCGAGGGCACCGUCCCCUCGGUAAUGGCGAAUGGGACCCG [G55C A87G], 0.953; in that of GGCCGGCAUGGUCCCAGCCUCCUCGCUGGCGCCGGCUGGGCAACAUUCCGAGGGCAUCGUCCCCUCGGUAAUGGCGAAUGGGACCCA [G55C C57U], 0.976.
The result for GGCCGGCAUGGUCCCAGCCUCCUCGCUGGCGCCGGCUGGGCAACAUUCCGAGGGCACCGUUCCCUCGGUAAUGGCGAAUGGGACCCA [G55C C61U] reads 1; that for GGCCGGCAUGGUCCCAGCCUCCUCGCUGGCGCCGGCUGGGCAACAUUCCGAGGGCACCGUCCCCUCGGUAAUGGCGAAUGGGGCCCA [G55C A83G], 0.767; that for GGCCGGCAUGGUCCCAGCCUCCUCGCUGGCGCCGGCUGGGCAACAUUCCGAGGGCACCGUCCCCUCGUUAAUGGCGAAUGGGACCCA [G55C G68U], 1.08.
